Paper PMC9410885, “Structural assembly of the nucleic-acid-binding Thp3–Csn12–Sem1 complex functioning in mRNA splicing” (Nucleic Acids Research, 2022)

B1: Csn12, full length, untagged (natural protein, S. cerevisiae, UniProt P47130 1-423, looked up)
chain: MDVDIGCYFEEKRYDDKLLDFIRYDVKTPKKTKYILQRPTATDEESVRLQRFYQLGVDLKLKYSKRRSLKKQGRIKNATEELLRLANEQLKLFNRIVERETNWIIYPLWVMAKQLIRLANESSELNKDSIEECGRTIHRSFTICLNDRNPRLNENKKIGCYMFANLEFSIYHRLSNKDMIKNLVKVLESRVNARDIPPLNKSLAMEHKSQVVLYNYYLGQYYGCLENDHERGFFHLNEALLQCPMLYVESTGKFVLQGQMEKIMILLVPLALLTKRLYPHWDHPVIAGVITRSKRLSQVYPTLVRSVISGNLSLYEATAASHERFFLSQGLHVVITLLREVVFTRLVQRCWQWGNDRKSIMPLKILLATKQHDSSANEDEEEQLDALECRLASAIASGLLRAYLSHSNRCIVFSKKEPFPHSK
notes: Csn12, S. cerevisiae, full length, residues 1-423; untagged Csn12 from pET-22b (with His8-GST-Thp3) or from the first MCS of pETDuet-1 (with Sem1 and His8-GST-Thp3); 7EWF is the selenomethionine form; source: E. coli Rosetta (DE3), co-expressed; in cleared lysate (pull-down) and purified in the ternary complex (Ni-NTA, gel filtration, cation exchange)

What was measured:
[1] = biological target: T1, Thp3 (186–470), truncated Thp3 (S. cerevisiae, UniProt Q12049 186-470); assay: crystal structure + SEC; single copy of the ternary complex in the asymmetric unit; ratio said to be consistent with the gel filtration result; settings: both partners purified
T1 construct: Thp3 (Ypr045c), S. cerevisiae, residues 186-470 (HD and WH domains); 8×His-GST tag removed with TEV protease; also called truncated Thp3 (residues 186–470); not shown: His8, N-terminal, cleaved; GST, N-terminal, cleaved
T1 sequence (looked up): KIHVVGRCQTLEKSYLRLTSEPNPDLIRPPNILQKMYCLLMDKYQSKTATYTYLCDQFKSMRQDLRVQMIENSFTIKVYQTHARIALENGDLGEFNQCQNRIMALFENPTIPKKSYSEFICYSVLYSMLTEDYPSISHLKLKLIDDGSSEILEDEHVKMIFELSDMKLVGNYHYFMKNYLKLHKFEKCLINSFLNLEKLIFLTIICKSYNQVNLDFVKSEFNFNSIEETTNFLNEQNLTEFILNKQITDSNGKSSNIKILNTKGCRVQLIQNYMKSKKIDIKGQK

[2] = biological target: B1; assay: as above; settings: both partners purified
Thp3;Csn12 R401E;Sem1 = biological target: T2, Thp3;Csn12 R401E;Sem1 (Saccharomyces cerevisiae;Saccharomyces …, UniProt Q12049;P47130;O94742 1-470;1-423;1-89, |R401E|); assay: fluorescence polarization; FP: 20 mM Tris-HCl pH 8.0, 150 mM NaCl, 2 mM MgCl2, 25 C; 50 nM 5'-FAM probe, protein 0-25.6 uM, 30 min; settings: protein: recombinant;recombinant;recombinant; tags: 8xHis-GST N-terminal, removed by TEV;none;none; copies: 1;1;1; label: 5' FAM
T2 sequence 1: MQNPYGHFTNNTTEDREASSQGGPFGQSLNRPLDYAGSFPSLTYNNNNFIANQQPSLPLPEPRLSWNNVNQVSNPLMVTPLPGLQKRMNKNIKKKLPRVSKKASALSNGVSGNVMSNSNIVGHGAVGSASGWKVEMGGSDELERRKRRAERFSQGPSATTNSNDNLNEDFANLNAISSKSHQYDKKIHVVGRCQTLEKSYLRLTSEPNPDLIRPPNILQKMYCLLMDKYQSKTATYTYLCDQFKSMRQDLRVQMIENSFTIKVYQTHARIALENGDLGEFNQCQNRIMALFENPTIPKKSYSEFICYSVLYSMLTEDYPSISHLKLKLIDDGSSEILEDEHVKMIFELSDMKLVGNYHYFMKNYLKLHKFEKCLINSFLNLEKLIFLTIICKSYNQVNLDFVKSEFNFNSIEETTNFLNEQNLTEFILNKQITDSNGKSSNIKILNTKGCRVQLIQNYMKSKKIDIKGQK
T2 sequence 2: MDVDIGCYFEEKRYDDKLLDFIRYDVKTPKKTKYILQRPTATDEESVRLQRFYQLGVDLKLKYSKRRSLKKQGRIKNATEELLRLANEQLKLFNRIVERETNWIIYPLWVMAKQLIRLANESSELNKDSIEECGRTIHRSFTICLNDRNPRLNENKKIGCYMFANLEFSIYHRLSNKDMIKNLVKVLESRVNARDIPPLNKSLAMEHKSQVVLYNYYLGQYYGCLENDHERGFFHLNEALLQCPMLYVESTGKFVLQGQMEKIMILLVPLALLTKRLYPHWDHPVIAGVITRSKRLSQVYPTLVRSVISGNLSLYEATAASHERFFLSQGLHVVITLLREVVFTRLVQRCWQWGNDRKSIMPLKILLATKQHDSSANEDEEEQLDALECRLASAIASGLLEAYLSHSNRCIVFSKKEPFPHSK
T2 sequence 3: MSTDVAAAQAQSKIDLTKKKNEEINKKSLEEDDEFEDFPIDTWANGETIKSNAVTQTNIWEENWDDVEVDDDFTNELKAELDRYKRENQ

[3] = biological target: T3, Thp3;Csn12 K415E/K416E;Sem1 (Saccharomyces cerevisiae;Saccharomyces …, UniProt Q12049;P47130;O94742 1-470;1-423;1-89, |K415E;K416E|); assay: as above; settings: protein: recombinant;recombinant;recombinant; tags: 8xHis-GST N-terminal, removed by TEV;none;none; copies: 1;1;1; label: 5' FAM
T3 sequence 1: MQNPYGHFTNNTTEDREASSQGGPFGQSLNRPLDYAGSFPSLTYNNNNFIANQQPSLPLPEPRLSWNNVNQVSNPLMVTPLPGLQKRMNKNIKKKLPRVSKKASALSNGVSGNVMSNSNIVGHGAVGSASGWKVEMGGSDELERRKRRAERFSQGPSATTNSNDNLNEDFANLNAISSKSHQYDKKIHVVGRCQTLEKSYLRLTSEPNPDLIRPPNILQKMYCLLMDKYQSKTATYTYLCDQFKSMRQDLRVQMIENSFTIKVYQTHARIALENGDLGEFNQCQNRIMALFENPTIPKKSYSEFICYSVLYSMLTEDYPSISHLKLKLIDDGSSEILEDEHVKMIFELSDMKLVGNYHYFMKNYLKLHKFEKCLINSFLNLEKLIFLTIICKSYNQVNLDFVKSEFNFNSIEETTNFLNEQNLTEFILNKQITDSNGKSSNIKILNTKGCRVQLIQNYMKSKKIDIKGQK
T3 sequence 2: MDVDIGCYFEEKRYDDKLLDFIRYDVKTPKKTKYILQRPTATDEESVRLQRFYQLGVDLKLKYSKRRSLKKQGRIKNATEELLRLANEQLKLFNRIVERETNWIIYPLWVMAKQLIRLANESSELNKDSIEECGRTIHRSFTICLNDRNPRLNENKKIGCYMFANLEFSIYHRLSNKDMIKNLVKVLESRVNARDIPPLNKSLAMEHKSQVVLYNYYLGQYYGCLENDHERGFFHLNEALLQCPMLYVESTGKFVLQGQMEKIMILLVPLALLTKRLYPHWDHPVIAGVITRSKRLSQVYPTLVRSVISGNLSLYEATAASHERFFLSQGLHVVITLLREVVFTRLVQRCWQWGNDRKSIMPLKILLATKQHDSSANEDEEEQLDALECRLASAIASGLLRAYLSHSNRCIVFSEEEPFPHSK
T3 sequence 3: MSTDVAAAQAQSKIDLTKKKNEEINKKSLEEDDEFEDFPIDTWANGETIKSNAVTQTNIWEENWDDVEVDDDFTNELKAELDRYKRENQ

Thp3;Csn12;Sem1 = biological target: T4, Thp3;Csn12;Sem1 (Saccharomyces cerevisiae;Saccharomyces …, UniProt Q12049;P47130;O94742 1-470;1-423;1-89, ||); assay: as above; settings: protein: recombinant;recombinant;recombinant, tags: 8xHis-GST N-terminal, removed by TEV;none;none, copies: 1;1;1, label: 5' FAM
T4 sequence 1: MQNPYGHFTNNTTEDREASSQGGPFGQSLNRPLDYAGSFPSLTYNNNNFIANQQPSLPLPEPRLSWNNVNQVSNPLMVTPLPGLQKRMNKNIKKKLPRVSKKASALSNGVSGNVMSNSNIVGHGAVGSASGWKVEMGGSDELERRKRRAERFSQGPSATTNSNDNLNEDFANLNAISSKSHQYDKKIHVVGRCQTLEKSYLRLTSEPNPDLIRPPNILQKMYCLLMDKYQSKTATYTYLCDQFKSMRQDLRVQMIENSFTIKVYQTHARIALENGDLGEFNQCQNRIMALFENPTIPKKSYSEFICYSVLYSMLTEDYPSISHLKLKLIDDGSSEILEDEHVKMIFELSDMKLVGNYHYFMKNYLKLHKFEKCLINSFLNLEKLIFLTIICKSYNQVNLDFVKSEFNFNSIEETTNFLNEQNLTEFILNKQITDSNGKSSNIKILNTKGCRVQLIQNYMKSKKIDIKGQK
T4 sequence 2: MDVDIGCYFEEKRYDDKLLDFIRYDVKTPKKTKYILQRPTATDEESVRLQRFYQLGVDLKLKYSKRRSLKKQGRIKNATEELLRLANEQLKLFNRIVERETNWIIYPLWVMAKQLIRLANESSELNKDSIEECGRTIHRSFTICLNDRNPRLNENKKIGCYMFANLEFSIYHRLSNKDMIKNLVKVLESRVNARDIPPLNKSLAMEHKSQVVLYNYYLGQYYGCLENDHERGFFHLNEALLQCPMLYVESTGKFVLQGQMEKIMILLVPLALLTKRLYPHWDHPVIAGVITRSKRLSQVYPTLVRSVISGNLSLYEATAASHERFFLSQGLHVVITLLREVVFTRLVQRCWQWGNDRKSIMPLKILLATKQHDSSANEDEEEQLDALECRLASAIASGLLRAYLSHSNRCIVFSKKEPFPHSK
T4 sequence 3: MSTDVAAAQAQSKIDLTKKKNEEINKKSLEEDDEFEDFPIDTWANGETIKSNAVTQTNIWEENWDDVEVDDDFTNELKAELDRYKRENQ

[4] = biological target: T5, Csn12 (binary complex);Sem1 (Saccharomyces cerevisiae;Saccharomyces …, UniProt P47130;O94742 1-423;1-89, |); assay: as above; settings: protein: recombinant;recombinant; tags: 6xHis;none; copies: 1;1; label: 5' FAM
T5 sequence 1: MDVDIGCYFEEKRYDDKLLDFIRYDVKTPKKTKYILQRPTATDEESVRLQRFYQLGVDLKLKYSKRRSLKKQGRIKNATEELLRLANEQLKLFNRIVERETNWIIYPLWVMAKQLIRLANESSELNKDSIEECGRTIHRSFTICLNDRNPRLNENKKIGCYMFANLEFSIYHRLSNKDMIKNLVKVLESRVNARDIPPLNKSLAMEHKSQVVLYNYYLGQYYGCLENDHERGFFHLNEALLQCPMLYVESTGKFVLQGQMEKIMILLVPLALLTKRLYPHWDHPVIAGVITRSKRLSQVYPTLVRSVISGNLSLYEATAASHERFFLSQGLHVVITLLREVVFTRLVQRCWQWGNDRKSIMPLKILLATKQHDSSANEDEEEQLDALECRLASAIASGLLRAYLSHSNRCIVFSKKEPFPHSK
T5 sequence 2: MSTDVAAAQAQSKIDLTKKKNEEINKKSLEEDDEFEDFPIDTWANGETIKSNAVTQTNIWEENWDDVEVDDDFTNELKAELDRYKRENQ

B1
stoichiometry N [1]: 1

B2: Sem1, full length, untagged (natural protein, S. cerevisiae, UniProt O94742 1-89, looked up)
chain: MSTDVAAAQAQSKIDLTKKKNEEINKKSLEEDDEFEDFPIDTWANGETIKSNAVTQTNIWEENWDDVEVDDDFTNELKAELDRYKRENQ
notes: Sem1, S. cerevisiae, full length, residues 1-89; second MCS of pETDuet-1; source: E. coli Rosetta (DE3), co-expressed; in cleared lysate (pull-down) and purified in the ternary complex (Ni-NTA, gel filtration, cation exchange)
stoichiometry N [2]: 1

TTTTATTTTATTTTTATTTT (ssDNA) [T-rich ssDNA 20]
binding result (Thp3;Csn12 R401E;Sem1): no binding | binding result [3]: no binding | Kd (Thp3;Csn12;Sem1): 3.7 µM

TTTTATTTTATTTTTATTTTATTTT (ssDNA) [T-rich ssDNA 25]
Kd [4]: 33.8 µM | Kd (Thp3;Csn12;Sem1): 2.9 µM

B3: T-rich dsDNA 20 (dsDNA)
DNA 1: TTTTATTTTATTTTTATTTT
DNA 2: AAAATAAAAATAAAATAAAA
Kd (Thp3;Csn12;Sem1; blunt): 1.1 µM

AUAUAUAUAUAUAUAUAUAU (ssRNA) [AU-repeat ssRNA 20]
Kd (Thp3;Csn12;Sem1): 4.5 µM

AUAUAUAUAUAUAUAUAUAUAUAUA (ssRNA) [AU-repeat ssRNA 25]
Kd (Thp3;Csn12;Sem1): 1.6 µM
